From paper PMC2190426
Like-named read-outs stand apart in the source and are kept apart here.

Key:
[1] = molecular target: cell-bound C3b on sheep erythrocytes (EAC4b,3b, called EC3b) (human) (UniProt P01024); experiment: radioligand binding
[2] = molecular target: cell-bound C3b on sheep erythrocytes (EAC4b,3b, called EC3b) (human) (UniProt P01024); experiment: radioligand binding; remark: listed apart in the source

Sequence of UniProt P01024 (P01024 23-667, chain 1 of 2): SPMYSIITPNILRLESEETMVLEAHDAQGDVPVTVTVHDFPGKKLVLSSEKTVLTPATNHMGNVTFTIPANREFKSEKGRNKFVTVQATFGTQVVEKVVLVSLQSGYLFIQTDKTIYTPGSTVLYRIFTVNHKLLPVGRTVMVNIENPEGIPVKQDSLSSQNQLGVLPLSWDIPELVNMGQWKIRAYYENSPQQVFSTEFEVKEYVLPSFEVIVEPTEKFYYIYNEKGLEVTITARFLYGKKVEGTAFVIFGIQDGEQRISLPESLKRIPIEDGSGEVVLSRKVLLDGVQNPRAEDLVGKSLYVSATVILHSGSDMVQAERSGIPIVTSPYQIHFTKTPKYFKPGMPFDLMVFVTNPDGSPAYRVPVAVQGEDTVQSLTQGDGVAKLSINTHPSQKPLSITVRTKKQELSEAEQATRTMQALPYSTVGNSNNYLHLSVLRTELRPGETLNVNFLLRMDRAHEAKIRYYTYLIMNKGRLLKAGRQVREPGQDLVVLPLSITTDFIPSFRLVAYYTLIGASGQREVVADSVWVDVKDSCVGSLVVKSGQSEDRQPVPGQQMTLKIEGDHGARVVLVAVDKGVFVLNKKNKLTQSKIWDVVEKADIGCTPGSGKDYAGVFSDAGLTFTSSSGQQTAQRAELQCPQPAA
Sequence of UniProt P01024 (P01024 749-1663, chain 2 of 2): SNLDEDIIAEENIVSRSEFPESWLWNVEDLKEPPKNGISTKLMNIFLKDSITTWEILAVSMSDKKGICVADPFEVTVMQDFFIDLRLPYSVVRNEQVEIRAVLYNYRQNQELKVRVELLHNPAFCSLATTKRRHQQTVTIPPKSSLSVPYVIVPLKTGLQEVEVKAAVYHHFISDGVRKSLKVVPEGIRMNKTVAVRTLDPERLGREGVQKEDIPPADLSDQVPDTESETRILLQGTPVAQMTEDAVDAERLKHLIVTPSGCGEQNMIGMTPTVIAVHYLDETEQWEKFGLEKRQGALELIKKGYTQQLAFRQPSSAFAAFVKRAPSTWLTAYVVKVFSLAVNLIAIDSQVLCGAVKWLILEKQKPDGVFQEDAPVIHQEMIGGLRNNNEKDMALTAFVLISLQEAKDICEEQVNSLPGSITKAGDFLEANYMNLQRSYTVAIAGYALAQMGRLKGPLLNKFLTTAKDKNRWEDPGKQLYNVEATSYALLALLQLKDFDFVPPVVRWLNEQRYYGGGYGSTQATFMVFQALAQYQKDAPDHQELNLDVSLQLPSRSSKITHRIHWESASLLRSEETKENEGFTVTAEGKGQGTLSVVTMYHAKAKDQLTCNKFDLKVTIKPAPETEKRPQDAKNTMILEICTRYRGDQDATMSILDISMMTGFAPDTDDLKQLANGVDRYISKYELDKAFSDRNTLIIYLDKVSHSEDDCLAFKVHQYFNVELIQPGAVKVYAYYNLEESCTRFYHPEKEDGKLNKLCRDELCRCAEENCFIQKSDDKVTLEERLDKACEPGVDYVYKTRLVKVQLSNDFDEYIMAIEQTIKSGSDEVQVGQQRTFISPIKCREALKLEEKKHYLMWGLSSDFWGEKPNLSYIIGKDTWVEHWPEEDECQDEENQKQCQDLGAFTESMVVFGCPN

percent of input taken up [1] | stoichiometry N (molecules P per molecule C3b) [1] | uptake (cpm) [1] | uptake (cpm) [2] | Substance
< 1% | < 10 | – | – | activated properdin (P) (from UniProt P27918 28-469) (natural protein)
– | – | 378 cpm | 10700 cpm | precursor properdin (pre-P) (from UniProt P27918 28-469) (natural protein)
